Measured values published in US20220125947A1 (published 2022).
Numbering of substitutions follows the chain as printed.

T1: T cell receptor (TCR) Vγ9 (TRGV9) (human, UniProt Q99603 21-122)
T1 chain (looked up): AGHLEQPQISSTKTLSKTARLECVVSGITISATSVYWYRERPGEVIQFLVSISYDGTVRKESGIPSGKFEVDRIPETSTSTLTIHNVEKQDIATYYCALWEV

T2: T cell receptor (TCR) Vγ9 (TRGV9) (human, UniProt Q99603 21-122)
T2 chain (looked up): T1 chain (looked up)

B1: VG9B198 (antibody, human IgG1, lambda, V domains shown)
VH: QVQLQESGPGLVKPSETLSLTCTVSGDSISSIYWSWIRQSAGKGLEWIGRIYTTDITNYNPSLKSRVTMSADTSKNQLSLKLTSVTAADTAVYYCAKNGYSYGGFNYWGQGTLVTVSS
VL: QSVLTQPPSVSGAPGQRVTISCTGSSSNIGAGYDVHWYQRLPGTAPKLLIYGDSYRPSGVPDRFSGSKSGTSASLAITGLQAEDEADYYCQSYDSSLSVVVFGGGTKLTVLG
B2: VG9B463 (antibody, human IgG1, lambda, V domains shown)
VH: EVQLVESGGGLVKPGGSLRLSCSASGFTFSNYDMNWVRQAPGKGLEWVSSISSSSSYIYYADSVKGRFTISRDNAKNSLYLQMNSLRAEDTAVYHCARDVGVTTDYYYYGMDVWGQGTTVTVSS
VL: QPVLTQSSSASGTPGQRVTISCSGSSSNIGSNTVNWYQQFPGTAPKLLIYTNTQRPSGVPDRFSGSKSGTLVSLAISGLQSEDEADYYCAAWDDSLNAWVFGGGTKLTVLG
B3: VG9B469 (antibody, human IgG1, kappa, V domains shown)
VH: EVQLVESGGGLVKPGGSLRLSCAASGFTFSHYDMNWVRQAPGKGLEWVSSISSSSSYIFYADSVKGRFTISRDNAKNSLLLQMNSLRAEDTAVYHCARDRGVGDTSDYYSFGLDVWGQGTMVTVSS
VL: DIVMTQSPGTLSLSPGERATLSCRASQNVSSTYLAWYQQKPGQAPRLLIYGACSRATGIPDRFSGSGSGTDFTLTISRLEPEDYAVYYCQQYGSSPPYTFGRGTKLEIKR
B4: VG9B384 (antibody, human IgG1, lambda, V domains shown)
VH: QVQLQESGPALVKPTQTLTLTCTFSGFSLSSSGMCVSWIRQPPGKALEWLTLIDWFDDKYYSTSLKTRLTISKDTSKNQVVLTMTNMDPVDTATYYCARIRGTGAYYYGLDVWGQGTMVTVSS
VL: SYELMQPPSVSVSPGQTASITCSGNELGDKYASWYQQQPGQSPVLVIYQDNKRPSGIPERFSGSNSGNTATLTISGTQAMDEADYYCQAWDSSKVVFGGGTKLTVLG
B5: VG9B413 (antibody, human IgG1, kappa)
heavy: not shown
light: EIVMTQSPGTLSLSPGDRATLSCRASQSVASSYLAWYQQKPGQSPRLLIYGASSRATGIPDRFSGSGSGTDFTLTISRLEPEDFAVYYCQQYGSSPPYTFGQGTKVEIKRTVAAPSVFIFPPSDEQLKSGTASVVCLLNNFYPREAKVQWKVDNALQSGNSQESVTEQDSKDSTYSLSSTLTLSKADYEKHKVYACEVTHQGLSSPVTKSFNRGEC
B6: VG9B36 (antibody, human IgG1, kappa, V domains shown)
VH: QVQLVESGGGLVKPGGSLRLSCASSGFTFSSYGMYWVRQAPGKGLEWVSSISTGSSYIYYADSVKGRFTISRDNAKNSLYLQMNSLRAEDTAVYYCARDKGLAVTGYIMDVWGQGTTVTVSS
VL: EIVLTQSPSSLSASVGDRVTITCQASQDISNYLNWYQQKPGKAPKLLIYDASNLETGVPSRFSGSGSGTDFTFTISSLQPEDIAIYYCQQYDNLPMYTFGQGTKVEIKR
B7: VG9B403 (antibody, human IgG1, kappa)
heavy: not shown
light: B5 light with E1D
B8: VG9B191 (antibody, human IgG1, lambda, V domains shown)
VH: EVQLVQSGGGLVKPGGSLRLSCAASGFTFSRYSMNWVRQAPGKGLEGVSSISSSSSYIYYADSVKGRFTISRDNAKNSLYLQMNSLRAEDTAVYYCARDGPTVNWDYYFDLWGRGTLVTVSS
VL: QSVLTQPPSVSAAPGQKVTISCSGSSSNIGNNYVSWYQQLPGTAPKLLIYDNNKRPSGIPDRFSGSKSGTSATLGITGLQTGDEADYYCGTWDSSLSTSVVFGGGTKLTVLG
B9: VG9B44 (antibody, human IgG1, kappa, V domains shown)
VH: QVQLQQSGPGLVKPSQTLSLTCAISGDSVSSNSAAWNWIRQSPSRGLEWLGRTYYRSKWYNDYPISVKSRISINPDTSKNQFSLQLNSVTPEDTAVYYCARESGSYYTDGFDIWGQGTMVTVSS
VL: DIQMTQSPSFLSASVGDRVTITCRASQGISSYLAWYQQKPGKAPKLLIYAASTLQSGVPSRFSGSGSGTEFTLTISSLQPEDFATYYCQEFNSYPYTFGQGTKLEIKR
B10: VG9B67 (antibody, human IgG1, kappa, V domains shown)
VH: EVQLVESGGGLVKPGGSLRLSCAASGFTFSSYTMNWVRQAPGKGLEWVSSISSSSSYIDYAESVKGRFTISRDNAKNSLYLQMNSLRAEDTAVYYCARDGDILATIRGSFDYWGQGTTVTVSS
VL: DIVMTQTPLSLPVTPGEPASISCRSSQSLLDSDAGNTYLDWYLQKPGQSPQLLIYTLSYRASGVPDRFSGSGSGTDFTLKISRVEAEDVAIYYCMQRIEFPITFGQGTKVEIKR
B11: VG9B402 (antibody, human IgG1, kappa)
heavy: not shown
light: DIQMTQSPSSVSASVGDRVTITCRASQGINSWLAWYQQKPGNAPKLLIYAASSLQSGVPSRFSGIGSGTDFIFTISSLQPEDFASYYCQQANSFPWTFGQGTKVDIKRTVAAPSVFIFPPSDEQLKSGTASVVCLLNNFYPREAKVQWKVDNALQSGNSQESVTEQDSKDSTYSLSSTLTLSKADYEKHKVYACEVTHQGLSSPVTKSFNRGEC
B12: VG9B127 (antibody, human IgG1, kappa, V domains shown)
VH: B10 VH with E1Q, A23T, S30G, S31A, Y60F, N84I, L103V, A104S, T117A, T118L
VL: B10 VL with D1E, T7S, A34D, A90G
B13: VG9B137 (antibody, human IgG1, kappa, V domains shown)
VH: EVQLVESGGGLVKPGGSLRLSCAAFGITFSSYSMDWVRQAPGRGLEWVSSIGSSSSYIFYADSVKGRFTISRDNAKNSLYLQMNSLRAEDTAVYYCATSYSWNYGGAFDIWGQGTMVTVSS
VL: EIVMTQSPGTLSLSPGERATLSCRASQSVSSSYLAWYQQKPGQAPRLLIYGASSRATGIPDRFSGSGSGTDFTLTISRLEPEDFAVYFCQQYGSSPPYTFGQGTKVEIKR
B14: VG9B33 (antibody, human IgG1, kappa, V domains shown)
VH: EVQLVESGGGLVKPGGSLRLSCAASGFTFSSYNMNWVRQAPGKGLEWVSSISTSSSYIYYADSVKGRFTISRDNAKNSLYLQMNGLRAEDTAVYYCARDTSVTKYPDTFDIWGQGTMVTVSS
VL: DIVMTQSPSSLSASVGDRVTITCRASQDINNYLAWFQQKPGKVPNLLIYGASTLQSGVPSRFTGSGSGTDFTLTISSLQPEDVATYYCQKYNSAPFTFGPGTKVDIKR
B15: VG9B162 (antibody, human IgG1, lambda, V domains shown)
VH: QVQLVESGAEVTKPGASVKVSCKASGYTFTGDYMHWVRQAPGQGLEWMGWINPNSGYTNYAQKFQGRVTMTRDTSISTAYMELSRLRSDDTAVYYCAREGDAFDVWGQGTMVTVSS
VL: QLVLTQSSSASGSPGQSVTISCTGTSSDVGGYNYVSWYQQHPGKAPKLMIYEVSKRPSGVPDRFSGSKSGNTASLTVSGLQAEDEADYYCNSYAGSNNFEVFGGGTKLTVLG

Experiments:
[1] = molecular target: T1, T cell receptor (TCR) Vγ9 (TRGV9); assay: cell-based or functional assay; for CD25+ (Vg9+ cells), flow staining: test concentration or dose not given here; for CD71+ (Vg9+ cells), flow staining: test concentration or dose not given here; for Granzyme B, Luminex (supernatant): unit not given here; for IL6, Luminex (supernatant): unit not given here; for TNFα, Luminex (supernatant): unit not given here
[2] = molecular target: T2, T cell receptor (TCR) Vγ9 (TRGV9); assay: cell-based or functional assay; for CD25+ (Vg9+ cells), flow staining: test concentration or dose not given here; for CD71+ (Vg9+ cells), flow staining: test concentration or dose not given here; for Granzyme B, Luminex (supernatant): unit not given here; for IL6, Luminex (supernatant): unit not given here; for TNFα, Luminex (supernatant): unit not given here

Row | CD25+ (Vg9+ cells), flow staining [1] | CD71+ (Vg9+ cells), flow staining [1] | Granzyme B, Luminex (supernatant) [1] | IFNγ, Luminex (supernatant) [1] | IL6, Luminex (supernatant) [1] | TNFα, Luminex (supernatant) [1] | Vg9 T cell %, flow staining [1] | CD25+ (Vg9+ cells), flow staining [2] | CD71+ (Vg9+ cells), flow staining [2] | Granzyme B, Luminex (supernatant) [2] | IFNγ, Luminex (supernatant) [2] | IL6, Luminex (supernatant) [2] | TNFα, Luminex (supernatant) [2] | Vg9 T cell %, flow staining [2] | Binder
1 | 23% | 91.2% | 1100 | 324 | 199 | 66 | 3.6% | – | – | – | – | – | – | – | B1
2 | 26% | 87.4% | 965 | 364 | 100 | 2110 | 4.1% | – | – | – | – | – | – | – | B2
3 | 29.9% | 98.5% | 3700 | 1580 | 440 | 173 | 7.8% | – | – | – | – | – | – | – | B3
4 | – | – | – | – | – | – | – | 26.4% | 89.9% | 2300 | 1100 | 610 | 3740 | 3.4% | B4
5 | – | – | – | – | – | – | – | 44.9% | 98.8% | 5800 | 2830 | 1960 | 229 | 13.3% | B5
6 | – | – | – | – | – | – | – | 29.1% | 89.4% | 3890 | 2580 | 607 | 188 | 7.8% | B6
7 | – | – | – | – | – | – | – | 36.2% | 97.5% | 3020 | 1390 | 175 | 102 | 7.2% | B7
8 | – | – | – | – | – | – | – | 42.4% | 93.6% | 3370 | 1380 | 400 | 7320 | 5.2% | B8
9 | – | – | – | – | – | – | – | 45.4% | 98.8% | 3030 | 1150 | 587 | 198 | 14.4% | B9
10 | – | – | – | – | – | – | – | 28.5% | 87.4% | 2550 | 972 | 365 | 144 | 14% | B10
11 | – | – | – | – | – | – | – | 45.5% | 99.1% | 4500 | 2370 | 433 | 376 | 9.5% | B11
12 | – | – | – | – | – | – | – | 37.3% | 96.5% | 2450 | 1170 | 348 | 709 | 11.2% | B12
13 | – | – | – | – | – | – | – | 8.7% | 77.3% | 36 | 44 | 8 | 30 | 3.6% | B13
14 | – | – | – | – | – | – | – | 28% | 95.2% | 1990 | 749 | 240 | 85 | 14% | B14
15 | – | – | – | – | – | – | – | 9.7% | 70.3% | 481 | 57 | 54 | 329 | 2.7% | B15
